The target in assay [1] is T1, cynomolgus PD-1 Fc fusion (cynomolgus monkey, UniProt B0LAJ3 25-170).
T1 construct: also called Cyno PD-1 (ELISA)
The assay is described as follows: ELISA on plate bound cynomolgus PD-1 Fc fusion. For orientation: In an ELISA, binding on a coated surface is turned into a signal by an enzyme label.

For assay [2], the target named is T2, human PD-1 expressed on cells (human, UniProt Q15116 25-288). The assay can be described thus: cell-based or functional assay.
Another assay deals with T3, human PD-1 Fc fusion (human, UniProt Q15116 25-170).
T3 construct: also called Hu PD-1 (ELISA); not shown: Fc part of the fusion
The assay can be described thus: ELISA on plate bound human PD-1 Fc fusion.

Assay [3] concerns the target T2, human PD-1 expressed on cells. The assay can be described thus: flow cytometry on PD-1 expressing Jurkat cells. (In general: A flow cytometer gives signals particle by particle.)
The target is the same in assay [4]. The assay is described as follows: flow cytometry on activated human CD4+ T cells. The procedure:
Cells were analyzed using Becton Dickinson FACSCanto flow cytometer. Data was analyzed using BD FACSDiva software (version 8.0.1).

Assay [5] addresses T4, Recombinant extracellular domain of human PD-1 (residues 1-167) (human, UniProt Q15116 25-167).
T4 construct: Bought from a commercial source; also called recombinant soluble PD-1 ECD; PD-1 ECD
The assay is described as follows: SPR, Biacore T200, antibody captured by anti-human Fc, PD-1 ECD as analyte. From the text: Unreacted moieties on the biosensor surface were blocked with ethanolamine.
A general note: Surface plasmon resonance follows binding to a sensor surface in real time, without labels.

Assay [6] addresses T2, human PD-1 expressed on cells. The assay is described as follows: flow cytometry on PD-1 expressing Jurkat cells; samples incubated 30 days at -80, 5, 25 or 40°C. The procedure:
(§1) PD-1 expressing Jurkat cells were harvested from flasks and resuspended to 2×10⁶ cells/mL in PBS containing 1% BSA. 100 μL of cells were added to a round bottom 96 well plate containing 100 μL of titrated test antibody or isotype control. Cells were incubated with antibodies at room temperature for 25 minutes and then washed twice with PBS containing 1% BSA. The cell pellet was resuspended in 100 μL of a 1:250 diluted secondary antibody goat anti-human Fab PE. Following 25 minutes incubation at RT, cells were washed twice with PBS containing 1% BSA and resuspended in 200 μL of 1% BSA. Cells were analyzed using Becton Dickinson FACSCanto flow cytometer. Data was analyzed using BD FACSDiva software (version 8.0.1).

Assay [7] has the same target. The assay is described as follows: flow cytometry on PD-1 expressing Jurkat cells; samples stored 30 days at the given temperature or oxidised with 1% hydrogen peroxide or 1% tert-butyl hydroperoxide. Here is the method: as §1
(§2) The antibody variants were screened for binding to human PD-1 transfected Jurkat cells and EC₅₀ values were determined (FIG. 3B).

Assay [8] has the same target. The assay can be described thus: flow cytometry on human PD-1 transfected Jurkat cells. The procedure: as §1, §2

Here are results for 5 molecules from patent US20200317808A1 (AbbVie / Abbott, published 2020).

T2 sequence (Q15116 25-288 limits assumed): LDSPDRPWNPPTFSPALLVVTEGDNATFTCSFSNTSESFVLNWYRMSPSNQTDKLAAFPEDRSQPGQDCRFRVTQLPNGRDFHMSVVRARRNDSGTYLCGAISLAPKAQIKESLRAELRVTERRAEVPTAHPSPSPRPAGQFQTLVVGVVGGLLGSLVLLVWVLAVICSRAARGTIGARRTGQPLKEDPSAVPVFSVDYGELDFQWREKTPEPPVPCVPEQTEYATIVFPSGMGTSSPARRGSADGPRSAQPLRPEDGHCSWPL
T1 sequence (B0LAJ3 entry or part of it limits assumed): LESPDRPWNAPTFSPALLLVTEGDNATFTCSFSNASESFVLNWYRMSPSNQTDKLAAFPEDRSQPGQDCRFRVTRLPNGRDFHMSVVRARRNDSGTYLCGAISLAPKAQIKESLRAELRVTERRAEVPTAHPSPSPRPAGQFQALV
T3 sequence (Q15116 25-170 limits assumed): as the sequence (B0LAJ3 entry or part of it limits assumed) above, with E2D, A10P, L19V, A35T, R75Q, A144T counted along it
T4 sequence (Q15116 25-167): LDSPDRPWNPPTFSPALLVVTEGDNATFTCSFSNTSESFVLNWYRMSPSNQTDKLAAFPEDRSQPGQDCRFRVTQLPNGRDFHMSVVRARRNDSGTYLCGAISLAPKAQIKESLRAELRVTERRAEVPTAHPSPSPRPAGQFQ
Method for human PD-1 Fc fusion: Immunolon 4×HB 96 well plates were coated with 1 ug/ml of human PD-1 Fc fusion in at 4° C. overnight. Plates were blocked with PBS containing 1% BSA for 30 minutes at room temperature and then washed three times with PBS containing 0.1% Tween 20 (PBST) using a plate washer. PD-1-coated plates were then incubated with indicated concentrations of antibodies at room temperature (RT) for one hour. Plates were washed four times with PBST and then incubated for 1 hour at room temperature with 100 μL of goat anti-human Fab fragment specific-biotin prepared to a dilution of 1:5000 in PBS containing 1% BSA. Plates were washed five times in PBST and 100 μL of a 1:1000 dilution of Streptavidin-HRP was added to each well and incubated for 30 minutes at RT. Plates were washed five times in PBST and 100 μL of TMB One Component were added to each well and incubated at RT until color developed (approximately 5-10 minutes). Optical density (OD) was read at 650 nm using Spectromax190 (Molecular Devices).

The EC50 is the concentration that produces a half-maximal response. Low readings indicate greater potency, high ones weaker potency. In the case of Nivolumab (antibody), the EC50 in [1] is 0.07 nM.

B1: Humanized 12A11.2b with M99L in CDR-H3 (antibody, V domains shown)
VH: EIQLVQSGAEVKKPGSSVKVSCKASGYTFTHYGMNWVRQAPGQGLEWVGWVNTYTGEPTYADDFKGRLTFTLDTSTSTAYMELSSLRSEDTAVYYCTREGEGLGFGDWGQGTTVTVSS
VL: DVVMTQSPLSLPVTPGEPASISCRSSQSIVHSHGDTYLEWYLQKPGQSPQLLIYKVSNRFSGVPDRFSGSGSGTDFTLKISRVEAEDVGVYYCFQGSHIPVTFGQGTKLEIK
notes: It was detected with anti-human Fab and captured with anti-human IgG Fc; also called Hu12A11.2b4; humanized antibody 12A11.2b M99L
For orientation: Kd means the constant that tells how readily two partners part at equilibrium. Broadly, the EC50 (read off the curve) is the concentration that produces a half-maximal response. A low value points to an effect from little substance. For B1, the “Jurkat NFAT EC50” value in assay [2] stood at 4.5 µg/mL. Moreover, the EC50 is 0.197 nM with human PD-1 Fc fusion, 0.102 nM in [1], 0.045 nM in [3] and 0.18 nM in assay [4]. Also, the Kd in [5] was found to be 2.1 nM. Moreover, the “EC50 (read off the curve)” value in assay [6] is ~0.01 µg/mL.

B2: Humanized 12A11.2b with mouse CDRs (antibody, V domains shown)
VH: EIQLVQSGAEVKKPGSSVKVSCKASGYTFTHYGMNWVRQAPGQGLEWVGWVNTYTGEPTYADDFKGRLTFTLDTSTSTAYMELSSLRSEDTAVYYCTREGEGMGFGDWGQGTTVTVSS
VL: DVVMTQSPLSLPVTPGEPASISCRSSQSIVHSHGDTYLEWYLQKPGQSPQLLIYKVSNRFSGVPDRFSGSGSGTDFTLKISRVEAEDVGVYYCFQGSHIPVTFGQGTKLEIK
notes: also called Hu12A11.2b1; M99 parent antibody
Consider B2, for which the binding result in assay [7] was “binds”.

B3: Humanized 12A11.2b with M99I in CDR-H3 (antibody, V domains shown)
VH: EIQLVQSGAEVKKPGSSVKVSCKASGYTFTHYGMNWVRQAPGQGLEWVGWVNTYTGEPTYADDFKGRLTFTLDTSTSTAYMELSSLRSEDTAVYYCTREGEGIGFGDWGQGTTVTVSS
VL: DVVMTQSPLSLPVTPGEPASISCRSSQSIVHSHGDTYLEWYLQKPGQSPQLLIYKVSNRFSGVPDRFSGSGSGTDFTLKISRVEAEDVGVYYCFQGSHIPVTFGQGTKLEIK
notes: also called Hu12A11.2b2; M99I variant
Regarding B3, the binding result in assay [8] is on record as “binds”.

B4: Humanized 12A11.2b with M99V in CDR-H3 (antibody, V domains shown)
VH: EIQLVQSGAEVKKPGSSVKVSCKASGYTFTHYGMNWVRQAPGQGLEWVGWVNTYTGEPTYADDFKGRLTFTLDTSTSTAYMELSSLRSEDTAVYYCTREGEGVGFGDWGQGTTVTVSS
VL: DVVMTQSPLSLPVTPGEPASISCRSSQSIVHSHGDTYLEWYLQKPGQSPQLLIYKVSNRFSGVPDRFSGSGSGTDFTLKISRVEAEDVGVYYCFQGSHIPVTFGQGTKLEIK
notes: also called Hu12A11.2b3; M99V variant
For the molecule B4, the binding result in assay [8] is listed as “binds”.
